{
  "source": "paper PMC11063897",
  "about": "“Structural analysis of the SAM domain of the Arabidopsis mitochondrial tRNA import receptor”",
  "assay_in_all_cases": "EMSA; 160 uM protein, 120 nM RNA; 15 mM Tris-HCl pH 7.0, 150 mM NaCl, 10% glycerol, 2 U/ul RNase inhibitor, 22 C, 15 min; 6% native TBE PAGE in 0.5x TBE",
  "settings_in_all_cases": "protein: recombinant; tags: N-terminal His6, thrombin site; label: 5'-6-FAM",
  "key": {"[1]": {"molecular_target": "T1, Tric1 SAM domain Asp235Ala:Gly241Glu (Arabidopsis thaliana, UniProt Q9SCK3, D235A;G241E)", "T1 sequence": "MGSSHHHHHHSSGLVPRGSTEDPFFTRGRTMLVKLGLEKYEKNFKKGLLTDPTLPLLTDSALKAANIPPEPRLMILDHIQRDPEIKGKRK"}, "[2]": {"molecular_target": "T2, Tric1 SAM domain Gly241Glu (Arabidopsis thaliana, UniProt Q9SCK3, G241E)", "T2 sequence": "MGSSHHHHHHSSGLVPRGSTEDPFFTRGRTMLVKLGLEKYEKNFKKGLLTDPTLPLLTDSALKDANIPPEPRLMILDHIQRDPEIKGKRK"}, "[3]": {"molecular_target": "T3, Tric1 SAM domain Asp235Ala (Arabidopsis thaliana, UniProt Q9SCK3, D235A)", "T3 sequence": "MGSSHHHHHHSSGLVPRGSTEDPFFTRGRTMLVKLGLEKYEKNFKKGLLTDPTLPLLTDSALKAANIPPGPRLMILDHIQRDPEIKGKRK"}, "Tric1 SAM domain WT": {"molecular_target": "T4, Tric1 SAM domain WT (Arabidopsis thaliana, UniProt Q9SCK3)", "T4 sequence": "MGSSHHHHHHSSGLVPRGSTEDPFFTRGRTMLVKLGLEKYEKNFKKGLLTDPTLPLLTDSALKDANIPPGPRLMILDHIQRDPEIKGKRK"}},
  "data": [
    {"binder": "UCGCUUUGCAUGCGA (structured_RNA)", "note": "[tRNAala T-arm]", "values": [
      {"measurement": "binding result", "setting": "[1]", "value": "no binding"},
      {"measurement": "binding result", "setting": "[2]", "value": "no binding"},
      {"measurement": "binding result", "setting": "[3]", "value": "no binding"},
      {"measurement": "binding result", "setting": "Tric1 SAM domain WT", "value": "binds"}
    ]}
  ]
}
